Molecular target: T1, SsoPCNA1 (Sulfolobus solfataricus, UniProt P57766 1-249)
T1 sequence (looked up): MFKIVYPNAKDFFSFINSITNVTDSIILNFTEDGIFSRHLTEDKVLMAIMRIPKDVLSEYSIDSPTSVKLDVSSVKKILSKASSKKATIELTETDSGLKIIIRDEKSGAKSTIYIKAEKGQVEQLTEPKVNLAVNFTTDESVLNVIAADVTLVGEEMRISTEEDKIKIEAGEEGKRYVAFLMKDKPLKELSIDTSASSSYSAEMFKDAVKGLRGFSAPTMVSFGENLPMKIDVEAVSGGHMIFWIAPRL
Experiment: crystal structure

binding result: binds
B1: SsoPCNA2 (natural protein, Sulfolobus solfataricus, UniProt Q97Z84 1-245, looked up)
chain: MKAKVIDAVSFSYILRTVGDFLSEANFIVTKEGIRVSGIDPSRVVFLDIFLPSSYFEGFEVSQEKEIIGFKLEDVNDILKRVLKDDTLILSSNESKLTLTFDGEFTRSFELPLIQVESTQPPSVNLEFPFKAQLLTITFADIIDELSDLGEVLNIHSKENKLYFEVIGDLSTAKVELSTDNGTLLEASGADVSSSYGMEYVANTTKMRRASDSMELYFGSQIPLKLRFKLPQEGYGDFYIAPRAD
